Patent US20190352420A1 (Boehringer Ingelheim, published 2019)
Changes are numbered by the printed parent chain.

T1: mouse CD73 (mouse, UniProt Q61503 29-551, limits assumed)
T1 construct: also called murine CD73
T1 sequence (looked up): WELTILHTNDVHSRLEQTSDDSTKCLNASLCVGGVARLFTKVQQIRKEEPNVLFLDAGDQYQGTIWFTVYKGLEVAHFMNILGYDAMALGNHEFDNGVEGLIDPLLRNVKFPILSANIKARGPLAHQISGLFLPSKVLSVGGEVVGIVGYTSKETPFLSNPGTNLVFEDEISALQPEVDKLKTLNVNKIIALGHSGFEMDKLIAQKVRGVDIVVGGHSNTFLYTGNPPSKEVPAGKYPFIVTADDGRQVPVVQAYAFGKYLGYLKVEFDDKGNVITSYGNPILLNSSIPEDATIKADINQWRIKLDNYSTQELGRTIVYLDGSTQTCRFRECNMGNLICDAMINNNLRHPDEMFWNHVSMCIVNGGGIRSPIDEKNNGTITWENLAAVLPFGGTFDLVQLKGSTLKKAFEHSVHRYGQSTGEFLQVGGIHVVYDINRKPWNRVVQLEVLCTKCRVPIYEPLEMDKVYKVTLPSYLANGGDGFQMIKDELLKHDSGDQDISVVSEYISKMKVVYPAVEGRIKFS

T2: recombinant human CD73 protein (human, UniProt P21589 27-549, limits assumed)
T2 sequence (looked up): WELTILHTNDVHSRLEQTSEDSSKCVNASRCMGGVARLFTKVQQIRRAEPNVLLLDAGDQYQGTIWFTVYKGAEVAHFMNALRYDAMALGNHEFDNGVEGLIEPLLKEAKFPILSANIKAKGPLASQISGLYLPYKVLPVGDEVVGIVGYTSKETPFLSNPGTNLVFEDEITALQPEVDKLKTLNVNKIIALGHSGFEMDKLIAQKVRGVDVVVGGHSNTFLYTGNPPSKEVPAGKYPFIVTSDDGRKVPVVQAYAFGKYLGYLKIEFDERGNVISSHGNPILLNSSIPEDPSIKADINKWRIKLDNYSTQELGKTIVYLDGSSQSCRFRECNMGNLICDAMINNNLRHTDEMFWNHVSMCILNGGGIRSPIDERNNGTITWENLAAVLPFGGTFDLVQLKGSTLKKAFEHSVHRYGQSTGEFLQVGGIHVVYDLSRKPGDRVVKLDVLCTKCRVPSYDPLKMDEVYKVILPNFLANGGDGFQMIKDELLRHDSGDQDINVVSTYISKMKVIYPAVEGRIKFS

T3: cell-bound CD73 (human, UniProt P21589 27-549)
T3 sequence (looked up): T2 sequence (looked up)

T4: non-cell-bound CD73 (human, UniProt P21589 27-549, limits assumed)
T4 sequence (looked up): T2 sequence (looked up)

T5: human CD73-His (human, UniProt P21589 27-549)
T5 construct: extracellular domain; The SPR analyte is only called 'human CD73-His' (non-covalent dimeric antigen); also called HuCD73 His tagged; HuCD73his20170303
T5 sequence: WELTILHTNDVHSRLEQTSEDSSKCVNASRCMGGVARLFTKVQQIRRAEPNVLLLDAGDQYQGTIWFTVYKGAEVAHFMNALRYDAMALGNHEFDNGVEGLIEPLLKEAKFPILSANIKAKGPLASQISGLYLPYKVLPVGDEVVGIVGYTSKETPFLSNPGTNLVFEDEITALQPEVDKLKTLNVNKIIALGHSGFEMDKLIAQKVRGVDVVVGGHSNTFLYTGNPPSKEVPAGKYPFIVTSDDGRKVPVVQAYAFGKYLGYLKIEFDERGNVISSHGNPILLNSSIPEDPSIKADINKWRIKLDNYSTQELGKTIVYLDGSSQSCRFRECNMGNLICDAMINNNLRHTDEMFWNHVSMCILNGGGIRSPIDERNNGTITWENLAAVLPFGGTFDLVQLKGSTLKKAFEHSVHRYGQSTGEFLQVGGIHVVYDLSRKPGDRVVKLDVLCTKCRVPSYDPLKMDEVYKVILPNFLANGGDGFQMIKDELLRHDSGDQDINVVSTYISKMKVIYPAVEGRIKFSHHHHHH

B1: C3 (antibody, human IgG1, kappa, L234A L235A, V domains shown)
VH: QVQLVQSGAEVKKPGDSVKVSCKASGYTFTTYWMHWVRQAPGQGLEWMGAIYPGLSDTTYSQKFKGKVTMTRDTSTSTVYMKLSSLRSEDTAVYYCARLLDYAMDYWGQGTLVTVSS
VL: DIQMTQSPSSLSASVGDRVTITCRASQDIRSYLNWHQQKPGKAPKLLIWYTSRLHSGVPSRFSGSGSGTDYTLTISSLQPEDFATYFCQQGETLPWTFGQGTKLEIKR
notes: Humanized monoclonal antibody; also called anti-CD73 antibody C3
B2: C5 (antibody, human IgG1, kappa, L234A L235A, V domains shown)
VH: B1 VH with L55N, S61N
VL: B1 VL with Q79E
notes: Humanized monoclonal antibody; also called anti-CD73 antibody C5

Columns and labels:
mouse CD73 = biological target: T1, mouse CD73; test: SPR, mouse CD73 compared with human CD73 (reference)
[1] = biological target: T2, recombinant human CD73 protein; test: cell-based or functional assay
cell-bound CD73 [2] = biological target: T3, cell-bound CD73; test: cell-based or functional assay
non-cell-bound CD73 = biological target: T4, non-cell-bound CD73; test: cell-based or functional assay
human CD73-His = biological target: T5, human CD73-His; test: SPR (ProteOn XPR36), antibody captured on Protein A/G, dimeric human CD73-His as analyte, avidity format, 1:1 Langmuir fit
Protocol: For the avidity format, the experiment was performed on a Bio-Rad ProteOn XPR36 instrument. Antibodies were captured via Protein A/G and the non-covalent dimeric antigens were flowed over the captured surface. The running buffer for this experiment and all dilutions were prepared in PBS-T-EDTA. The GLM sensor chip was normalized and pre-conditioned as per the manufacturer's recommendations. The sensor chip was activated with an equal mixture of EDC/s-NHS in the horizontal direction for 300 s at a flow rate of 30 μL/min and immobilized with recombinant Protein A/G (50 μg/ml in 10 mM acetate pH 4.5) in the horizontal direction for 300 s at a flow rate of 30 μL/min resulting in about 5000 RU of Protein A/G on the surface. The sensor chip was deactivated with 1M ethanolamine-HCl in the horizontal direction for 300 s at a flow rate of 30 μL/min. The sensor chip was regenerated with 18 s of 0.85% phosphoric acid at a flow rate of 100 μL/min 2 times horizontally and 2 times vertically.
About 300 RU of antibody was captured on the Protein A/G surface vertically for 60 s at a flow rate of 30 μL/min. The capture surface was stabilized by injecting PBS-T-EDTA for 60 s at a flowrate of 100 μL/min horizontally. The analyte (human CD73-His) was injected horizontally over the captured antibody for 600 s at a flow rate of 30 μL/min with a dissociation of 1200 s. The concentrations of human CD73-His were 0 nM, 3.125 nM, 6.25 nM, 12.5 nM, 25 nM and 50 nM. The surface was regenerated by injecting 0.85% phosphoric acid for 18 s at a flow rate of 100 μL/min one time horizontally and one time vertically.
The interspot (interactions with sensor surface) and blank (PBS-T-EDTA or 0 nM analyte) were subtracted from the raw data.

cell-bound CD73 [3] = biological target: T3, cell-bound CD73; test: cell-based or functional assay; remark: listed apart in the source
cell-bound CD73 [4] = biological target: T3, cell-bound CD73; test: cell-based or functional assay; remark: listed apart in the source
cell-bound CD73 [5] = biological target: T3, cell-bound CD73; test: cell-based or functional assay; remark: listed apart in the source
cell-bound CD73 [6] = biological target: T3, cell-bound CD73; test: cell-based or functional assay; remark: listed apart in the source

Binder	fold higher binding to human CD73 than to mouse CD73 (mouse CD73) [fold]	IC90 of inhibition of CD73 enzymatic function (luciferase-based assay) [1] [nM]	CD73 surface reduction [%] on Colo201 cells, 24 h, flow cytometry (cell-bound CD73 [2]) [%]	% of max. adenosine inhibition, Colo-201 culture supernatant (non-cell-bound CD73) [%]	Kd (human CD73-His) [nM]	CD8 T cell proliferation [% of control], Donor A, 1 nM antibody (cell-bound CD73 [3]) [%]	CD8 T cell proliferation [% of control], Donor B, 1 nM antibody (cell-bound CD73 [3]) [%]	CD8 T cell proliferation [% of control], Donor C, 1 nM antibody (cell-bound CD73 [3]) [%]	CD8 T cell proliferation [% of control], Donor D, 1 nM antibody (cell-bound CD73 [3]) [%]	CD8 T cell proliferation [% of control], Donor E, 1 nM antibody (cell-bound CD73 [3]) [%]	CD8 T cell proliferation [% of control], Donor F, 1 nM antibody (cell-bound CD73 [3]) [%]	IFNγ release [fold change over control], Donor A, 1 nM antibody (cell-bound CD73 [4]) [fold]	IFNγ release [fold change over control], Donor B, 1 nM antibody (cell-bound CD73 [4]) [fold]	IFNγ release [fold change over control], Donor C, 1 nM antibody (cell-bound CD73 [4]) [fold]	IFNγ release [fold change over control], Donor D, 1 nM antibody (cell-bound CD73 [4]) [fold]	IFNγ release [fold change over control], Donor E, 1 nM antibody (cell-bound CD73 [4]) [fold]	IFNγ release [fold change over control], Donor F, 1 nM antibody (cell-bound CD73 [4]) [fold]	% of max. adenosine inhibition, washed Colo-201 cells (cell-bound CD73 [5]) [%]	Max. adenosine inhibition [%] in Colo201 cells (cell-bound CD73 [6]) [%]
B1	117	0.32	16	82	0.072	103	80.2	116	99.3	101	91.3	19.9	7.7	31.9	19	14.2	6.7	81	88
B2	163	0.29	19	80	0.049	103	80.3	101	99.3	100	86	24.5	11.3	59.3	22.9	12.4	5.8	82	87
